B1: Tottorivirus (nucleic acid, listed as Tottorivirus sp.)
DNA: CCCCTTTACGTAACTGCAACTTAAAGAGTACCCTACTGCATTGGATGTGTGGTAAACTTTTACGCACACATTTGTAGTAGTGTTAGTTATGTTCTACCTAATGAGTATGCATGCACCCGTCGAAACACGCTTGTGATAAGATAGGTGAGTCCATGTGACTAATCTCATTAAGATAAATAAGCACCCTACAACGCACGGCACGCTCGTGTCTTCCGTGCGGGGCCGGGACAACAGCGGCCTAAATCTTCTAGGTGACCACCATGCTTTTGGGACTATGGCACCACTGTGGACGTGAGTACCTGGCAGTAAGTCTGTGAAAAGATGGAAGGTGTCCCAAGCTATGGGGCGTATGCATATAGCCTGCGGAACAAACAACGGCGACGTTGTCCCCAGGGCCCAAAAGGCACGTGGATAAGATCCACCTATATGTTTACCCCATAGTGTAAGTCACTGGAAGTCCTAGTAATGGATGTCTGGAGTAAGGCTCACGGGGTAGGGCGAAGGATGCCCAGAAGGTACCCGTAGGTAACCTTAAGAGACTATGGATCTGATCTGGGGACCGGATGGCGCCATCACCATGACGTGGAGGCCGGTTTAAAAAACGTCTAAGCCCGACCAACAACCTAGGGGACTAGGTTTTCCTTTTTTATTCATGTATGACGTT
B2: Posavirus 1 (nucleic acid)
DNA: ACATTTCCTTGCGTGCGCACCCGAAAATTTATTGAACTTGGCTTGAATCATAAGTAATGCTTCTTATAGCGGACACTTTGAGAATATAATGCTTGTATGGATTAATGTATACTGTTTTAAATAACAAACCTAGACACGCAGTTGCGTTGATGGTTGTATCAATCACATATAAGTGTTGAACTCGTGTTAATCCTCGATCGCTATATGTTTGCCGCCTACTTCCAATAAAATAGATTACATGCGCGTCATGCCTTTGTGGGTTACCTATTGGCCTCTGACAAAAACAAGTCGTAAGATTTGTAGCTTCCCGGTGTAAAAAGCTGGGCGCGGTCTGGCTCTCGTAGGGTGGAAAGGTCCACCAATGGCTGGTTGAGTGTAAGCTCCGGTGTCCTGGTTGTCGCAATTCCAGGCGTCGTAATAACCTATATTGCATCTGACTCTAACTCTTGTGGCTCTACTGTATCTAGTTCTTGTTCTACTAACTCTAATAATACTACTGGCTCTAATACTGAAAAACTTACATATGTTAATATAGATAATATCCTTGATCCTGATATCCCTCACGTCACTGAAGTTCGCCGAAAACGAATTTCAGATCATATCATTGAATCTCAAGGATGTACTTGCTCTGAACCTACTATAACTCCTCATGCGTTTTCATTTTCTACTCTTGGC
B3: Mosavirus A2 SZAL6 (nucleic acid, listed as Mosavirus sp.)
DNA: CCCCCCCCTCAAATTGCAACGATATAGCTAATGGCGAGATTGAGATGCTATATCACCTCTTCTAAGTTATAGACCTCATCTGATTGATAAGGACGTAATTTGGTCGAAACCGCTTGGAATAAGACCGATGCGCGTAGTCATGATGATGATGTAAGATCTAGGAACTTATCCAATCTGCTTATGTCTATGTAAGTAGAGGGGCAGGCCTCATTGCCCTAATTCTTTCTACCGAGTATCTGCTAGGGTTTCTAGCGGCTTGAATACTTGGATTGAGGGATACAAGATACTACTGATCGATTGTCGATTGGGAAACTTGTAGATACTTCAAAGCTACCAGTAGCGTGGACTCACAGCCAGCGGACTACCCCTCATGGTAACATGAGCCTCTGGGCCCACAAGGCACGTCGCAAGACCTGTGAGACGGCAACCCCAGCCTAGCTTTGTTGAGGAAACAAGCGATAACATGACATGAGAGACCGGAAGGATTCTTGTATTGTGAGCCGAAGGATGGCCTCTAGGTACCTCATTTTATGAGATCTGAGGAGGTGCTCTTGAGTTGGTGCTTTACACTGACAACACAGAGTTAAAAAGCGTCTAAGCTCACCCGGAAATTGGGAAATTTCCGTTATTTCCATTTTGTTTGCAAAGTCGTTC
B4: Malagasivirus B (nucleic acid)
DNA: CTTTATTTTCTTATGTAACTCTTCTTTTTAAGTTTTATTTTGCCTACTTGTGAGCTTATGCGGGACCACTGTCTTAGACAACCCCACATTTGTCATGAGTAAGTACACGCAACCATTACGATTACTTTTTAACCGTCTGACCTTTTGATAACAACTGAAGTTAGGCGTGAAACATGCATTTATACCAAAGTAGCCCCGCATTTCCCCACTACGGTGGGGGGGCTACCCTACTGGCTTTGGAACTGTAGCCATTATGTGTTGCCTGGCTTTCAGGATCTCACAACACAACAGTTCTCTCACAATGGAATATGGGTGAGATTGCAGTGACATGAACAAGTATCTAGTAGTACATAGACTCAAGCCTAGTTGCCTGCGGAACAACATGTGGTAACACATGCCCCAGGGTCCAAAAGACAAGGGTTAACAGCCCCTTCTAGGTGTCTGTGTGTGAAGAATACTTTAGTAGTGTTGTTATGATCTCACCTGTTAGTACAGAATGAGTATGGCTTGGTGAAGGATGTCCTACAGGTACCCATTATATGGATCTGAGTAGGAGACCACTAGTGGTGGCTTTACCGCCAGGTGAGTGGTTTAAAAAGCGTCTAGCCAAGCCAACAGCACTAGGGATAGTGCTTTCTATATTTTATATTTTCAGTGTAT
modifications: Malagasivirus B
B5: SVV (nucleic acid)
DNA: CTGGGCCCTCATGCCCAGTCCTTCCTTTCCCCTTCCGGGGGGTAAACCGGCTGTGTTTGCTAGAGGCACAGAGGAGCAACATCCAACCTGCTTTTGTGGGGAACGGTGCGGCTCCAATTCCTGCGTCGCCAAAGGTGTTAGCGCACCCAAACGGCGCATCTACCAATGCTATTGGTGTGGTCTGCGAGTTCTAGCCTACTCGTTTCTCCCCTATCCACTCACTCACGCACAAAAAGTGTGCTGTAATTACAAGATTTAGCCCTCGCACGAGATGTGCGATAACCGCAAGATTGACTCAAGCGCGGAAAGCGCTGTAACCACATGCTGTTAGTCCCTTCATGGCTGCGAGATGGCTATCCACCTCGGATCACTGAACTGGAGCTCGACCCTCCTTAGTAAGGGAACCGAGAGGCCTTCTTGCAACAAGCTCCGACACAGAGTCCACGTGATTGCTACCACCATGAGTACATGGTTCTCCCCTCTCGACCCAGGACTTCTTTTTGAATATCCACGGCTCGATCCAGAGGGTGGGGCATGATCCCCCTAGCATAGCGAGCTACAGCGGGAACTGTAGCTAGGCCTTAGCGTGCCTTGGATACTGCCTGATAGGGCGACGGCCTAGTCGTGTCGGTTCTATAGGTAGCACATACAAAT
B6: A105-675 (nucleic acid)
DNA: CCACCCACAGCAAGAATGCCATCATCTGTCCTCACCCCCATTTCTCCCCTCCTTCCCCTGCAACCATTACGCTTACTCGCATGTGCATTGAGTGGTGCACGTGTTGAACAAACAGCTACACTCACGTGGGGGCGGGTTTTCCCGCCCTTCGGCCTCTCGCGAGGCCCACCCTTCCCCTTCCTCCCATAACTACAGTGCTTTGGTAGGTAAGCATCCTGATCCCCCGCGGAAGCTGCTCGCGTGGCAACTGTGGGGACCCAGACAGGTTATCAAAGGCACCCGGTCTTTCCGCCTCCAGGAGTATCCCTGCTAGTGAATTCTAGTGGGGCTCTGCTTGGTGCCAACCTCCCCCAAATGCGCGCTGCGGGAGTGCTCTTCCCCAACTCACCCTAGTATCCTCTCATGTGTGTGCTTGGTCAGCATATCTGAGACGATGTTCCGCTGTCCCAGACCAGTCCAGCAATGGACGGGCCAGTGTGCGTAGTCGTCTTCCGGCTTGTCCGGCGCATGTTTGGTGAACCGGTGGGGTAAGGTTGGTGTGCCCAACGCCCGTACTTTGGTGACAACTCAAGACCACCCAGGAATGCCAGGGAGGTACCCCGCCTCACGGCGGGATCTGACCCTGGGCTAATTGTCTACGGTGGTTCTTCTTGCTTCCATTTCTTTCTTCTGTTC
B7: A110-675 (nucleic acid)
DNA: ACCTTTGTGCGCCTGTTTTATACCCCCTCCCCCAACTGTAACTTAGAAGTAACACACACCGATCAACAGTCAGCGTGGCACACCAGCCACGTTTTGATCAAGCACTTCTGTTACCCCGGACTGAGTATCAATAGACTGCTCACGCGGTTGAAGGAGAAAGCGTTCGTTATCCGGCCAACTACTTCGAAAAACCTAGTAACACCGTGGAAGTTGCAGAGTGTTTCGCTCAGCACTACCCCAGTGTAGATCAGGTCGATGAGTCACCGCATTCCCCACGGGCGACCGTGGCGGTGGCTGCGTTGGCGGCCTGCCCATGGGGAAACCCATGGGACGCTCTAATACAGACATGGTGCGAAGAGTCTATTGAGCTAGTTGGTAGTCCTCCGGCCCCTGAATGCGGCTAATCCTAACTGCGGAGCACACACCCTCAAGCCAGAGGGCAGTGTGTCGTAACGGGCAACTCTGCAGCGGAACCGACTACTTTGGGTGTCCGTGTTTCATTTTATTCCTATACTGGCTGCTTATGGTGACAATTGAGAGATCGTTACCATATAGCTATTGGATTGGCCATCCGGTGACTAATAGAGCTATTATATATCCCTTTGTTGGGTTTATACCACTTAGCTTGAAAGAGGTTAAAACATTACAATTCATTGTTAAGTTGAATACAGCAAA
B8: PTV A (nucleic acid)
DNA: ACTAGTCCTTGGACTTTTGTTGTGTTTAAACACAGAAATTTAATTACCTGGCCATGAATTCATTGGATTAACCCTTCTGAAAGACTTGCTCTGGCGCGAGCTAAAGCGCAATTGTCACCAGGTATTGCACCAGTGGTGGCGACAGGGTACAGAAGAGCAAGTACTCCTGACCGGGCAATGGGACTGCATTGCATATCCCTAGGCACCTATTGAGATTTCTCTGGGGCCCACCGGCGTGGAGTTCCTGTATGGGAATGCAGGACTGGACTTGTGCTGCCTGACAGGGTCGCGGCTGGCCGTCTGTACTTTGTATAGTCAGTTGAAACTCACC
modifications: Teschovirus A
B9: PTV B (nucleic acid)
DNA: CTTCCTTTTAATTCGTAACTGATAAGTGATAGTCCTTGGAAGCTAGGTATTTGTTACGCTAGTTTTGGATTATCTTGTGCCCAACATTTGTTTTCGAACATATGTTGTGTTTAAACACAGAAATCTAGTTTCTTTGGTTATGAGTTTAATGGAATATCCTTTTGAAAGACTTGCCTTGGCGCGGGCTAGAGCGCAATTGTCACCAGGTATTGCACCAATGGTGGCGACAGGGTACAGAAGAGCAAGTACTCCTGACTGGGTAATGGGACTGCATTGCATATCCCTAGGCATCTATTGAGATTTCTCTGGAGCCCACCAGCATGGAGTTCCTGTATGGGAATGCAGGACTGGACTTGTGCTGCCTGACAGGGTCGCGGCTGGCCGTCTGTACTTTGTATAGTCAGTTGAAACTCATT
modifications: Teschovirus B

tested on: HEK293 cells; format: cell-based, human; details: luminescence from secreted Gluc in supernatant 24 hours after transfection of HEK293 cells; circular RNA encoding Gluc with the named IRES (UTR truncated to 675 nt)

Question: How did the Expression turn out when B1 was run?
Answer: The Expression was 2.76E+07.

Question: For B2, which Expression is on record?
Answer: The Expression was 1.55E+06.

Question: How did the Expression turn out when B3 was run?
Answer: Its Expression is 8.27E+06.

Question: With B4 as the molecule, how does the Expression read?
Answer: Its Expression is 5.05E+06.

Question: B5 was tested. Which Expression did it give?
Answer: The Expression was 1.06E+06.

Question: For B6, which Expression is on record?
Answer: The Expression was 2.18E+07.

Question: How did the Expression turn out when B7 was run?
Answer: The Expression was 1.24E+08.

Question: For B8, which Expression is on record?
Answer: Its Expression is 7.29E+05.

Question: With B9 as the molecule, how does the Expression read?
Answer: Its Expression is 6.02E+06.
